# According to the supplement of paper PMC10201428:
# ± gives the standard deviation of the averaged measurements.
# B1: library; a variant is named by its letters at N, in order (parent)
# chain: AATGTTGTTGATGCAACCATAAAGTGATATTTAATAATTATTTATAATCAGCAACTTAACCACAAAACAACCATATATTGATATNTCACAAAACAACCATAANTTGATATTTTTGTGAATCGAGTATTTCAGCAAAACTACTGCAGTAAGAA
# Tests used:
# [1] = variants of: B1; test: relative integration efficiency (T-LR orientation) vs wild-type transposon end (log2 (normalized fold change)); transposon end mutated: left end; higher = more efficient transposition; details: with VchCAST RNA-guided transposition machinery (E. coli BL21(DE3) host, lacZ target)
# Experimental: (§1)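 Pooled, barcoded VchCAST (Tn6677) mini-transposon donor libraries; each variable transposon-end sequence sits in a fixed pDonor mini-transposon context (10-bp barcode and cargo not included). Left- or right-end libraries were co-transformed with pEffector (TniQ-Cascade, TnsABC, lacZ crRNA, T7, 0.1 mM IPTG) into E. coli BL21(DE3) and grown 18 h at 37 C. T-LR and T-RL junction amplicons were sequenced; output/input barcode fold change was normalised to the mean of four wild-type barcodes and log2-transformed. Two biological replicates; zero-count/undetected variants carry floor values (-10 / -15), censored here. Barcode uncoupling by PCR recombination adds noise.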
# [2] = variants of: B1; test: relative integration efficiency (T-RL orientation) vs wild-type transposon end (log2 (normalized fold change)); transposon end mutated: left end; higher = more efficient transposition; details: with VchCAST RNA-guided transposition machinery (E. coli BL21(DE3) host, lacZ target)
# Experimental: as §1
Variant,relative integration efficiency (log2) [1],relative integration efficiency (log2) [2]
TA G24A T30A A70C T76A T86G A96C T112G T113C,0.18 ± 0.5,0.313 ± 0.07
CG A27C T28G A29C T30G,-2.34 ± 1.1,-2.43 ± 0.93
TA T76A T78A T84A C87A A96C T110A T113A,0.0631 ± 0.19,0.318 ± 0.081
CG A33T C87G T113A,0.02216 ± 0.00015,-0.157 ± 0.2
CG A27T T28A A29T T30A,-0.918 ± 0.29,-0.753 ± 0.39
CG A27C A81C A107C,-1.49 ± 1.6,-1.32 ± 0.78
CG A1C A2C T3G G4T T5G,-0.299 ± 0.17,-0.197 ± 0.14
CA G24A T30A A102T T111C T113C,0.116 ± 0.42,-0.31 ± 0.36
TA T76A T78A T84A C87A A96C T112G T113C,-0.207 ± 0.74,0.00846 ± 0.17
CG A36T,0.0771 ± 0.068,0.0168 ± 0.042
CG A36C,-0.699 ± 0.7,-0.216 ± 0.15
CG A36G,-0.222 ± 0.59,-0.259 ± 0.23
CG A21T A22T A23T G24C,-0.979 ± 0.79,-0.775 ± 0.46
CG A34C T35C A36G T38C A40G T42C A44G T45C A46C A62G A65G A66C,-1.11 ± 0.2,-1.33 ± 0.56
CG A2T T3A G4C T5A,-0.131 ± 0.037,-0.0191 ± 0.036
CG A23C,0.494 ± 0.15,-0.467 ± 0.23
CG A23G,0.359 ± 0.084,-0.0169 ± 0.11
CG A23T,0.0168 ± 0.12,0.086 ± 0.23
TA G24A T30A A70C T76A T84A C87A T104A T110A T113A,-0.0484 ± 0.45,-0.389 ± 0.28
CG A27T T28A,-0.61 ± 0.9,-0.441 ± 0.66
CG A21T,-0.384 ± 0.81,-0.164 ± 0.16
CG A21G,-0.166 ± 0.32,-0.412 ± 0.49
CG A21C,-1.47 ± 0.6,-0.867 ± 0.55
CG A33C C87A T113G,0.0172 ± 0.12,-0.0603 ± 0.021

Variant,relative integration efficiency (log2) [1],relative integration efficiency (log2) [2]
CG A22T G24T T31C A33C,-0.141 ± 0.18,-0.0346 ± 0.14
CA A23G G24T A33T T104G T113A,0.0933 ± 0.62,-0.0946 ± 0.2
TA G24A T30A T76A T78G C87A T104A T110A T113A,0.464 ± 0.53,-0.242 ± 0.034
TA A70C T76A T84A C87A T104G T113A,0.771 ± 0.098,0.69 ± 0.33
TG A16C G24T T32G A33C A70C T76A T84A C87A,-0.64 ± 0.74,-0.378 ± 0.44
TA T76A T78G C87A A96C T112G T113C,0.518 ± 0.51,0.206 ± 0.018
CG A34C A36G T38C T42C A62G A65G A66C,-0.874 ± 0.72,-0.721 ± 0.33
CG A19C T20G,-2.1 ± 1.2,-2.69 ± 0.82
TA T76A T78A T84A C87A A102T T111C T113C,-0.0132 ± 0.72,0.244 ± 0.16
CG A23C G24T,-0.153 ± 0.042,-0.106 ± 0.064
CG A33T A34T T35A A36T,0.405 ± 0.42,0.295 ± 0.092
TG A22T G24T T31C A33C A70C T76A T86G,-0.285 ± 0.49,-0.627 ± 0.19
CG A1T A2T G4T T5G,-0.165 ± 0.16,-0.0703 ± 0.2
CG A19G,-0.219 ± 0.077,-0.352 ± 0.074
CG A19T,-0.706 ± 1.6,-0.267 ± 0.38
CG A19C,-1.53 ± 1,-1.49 ± 0.49
TG A22T G24T T31C A33C A70C T76A T84A C87A,-0.478 ± 0.83,-0.488 ± 0.46
TA G24A T30A T76A A77G C87T A102T T111C T113C,-0.112 ± 0.15,-0.456 ± 0.55
CG A34T T35A A36T A37T,0.329 ± 0.44,0.189 ± 0.094
CG A33T A34T,0.663 ± 0.25,0.125 ± 0.061
CG A29C T30G,-1.28 ± 1.4,-1.12 ± 0.53
CC A23T G24C A77T T78A T104A,-0.642 ± 0.69,-0.611 ± 0.28
CG A15C A16C C17A C18A,-2.02 ± 1.9,-1.89 ± 0.66
CG A16C G24T T30A,-0.135 ± 0.14,-0.3 ± 0.21

Variant,relative integration efficiency (log2) [1],relative integration efficiency (log2) [2]
CA G24A T30A T104G T113A,-0.317 ± 0.27,-0.387 ± 0.13
CG A16T C17G,-0.34 ± 0.47,-0.0955 ± 0.095
CG A29C A83C A109C,-1.94 ± 0.43,-1.65 ± 0.57
TA G24A T30A T76A T78G C87A A96C T110A T113A,0.291 ± 0.89,0.0775 ± 0.15
CG A34C T35C A36G T38C A40G T42C A44G A62G A65G A66C,-0.6091 ± 0.0048,-0.635 ± 0.3
TA T76A T78A T84A C87A T104A T110A T113A,0.357 ± 0.48,0.0146 ± 0.17
AG,0.27 ± 0.094,0.00541 ± 0.045
CC A102T,0.202 ± 0.2,-0.155 ± 0.12
CG A36C A37C,0.196 ± 0.61,0.127 ± 0.018
CG A29T T30A,0.489 ± 0.49,0.23 ± 0.29
CG A15T,0.37 ± 0.27,-0.148 ± 0.14
CG A15G,-0.118 ± 0.26,-0.121 ± 0.26
CG A15C,0.321 ± 0.27,0.0839 ± 0.1
CG A36T A37T,0.375 ± 0.21,0.0996 ± 0.091
CG A29T,-0.0387 ± 0.14,0.26 ± 0.13
CG A29C,-0.501 ± 0.28,-0.333 ± 0.36
CG A29G,-0.232 ± 0.74,-0.238 ± 0.44
CG A15C A69C A95C,-0.511 ± 0.34,-0.731 ± 0.34
CG A34T A36G A37T T38G T39A A40G T41C T42G T43G T48C C49A,-2.77 ± 0.75,-2.86 ± 0.81
TA G24A T30A T76A T78A T84A C87A T104G T113A,0.368 ± 0.38,-0.186 ± 0.3
CG A11C T12G G13T C14A,-1.55 ± 0.089,-0.699 ± 0.47
TA A70C T76A T84A C87A A102T T111C T113C,0.619 ± 0.14,0.128 ± 0.4
CG A34C A36G T38C A40G T42C A62G A65G A66C,-0.589 ± 0.68,-0.685 ± 0.25
TA A70C T76A T84A C87A A96C T112G T113C,-0.389 ± 0.085,-0.122 ± 0.12

Variant,relative integration efficiency (log2) [1],relative integration efficiency (log2) [2]
TA G24A T30A T76A T78A T84A C87A A96C T112G T113C,0.461 ± 0.4,0.172 ± 0.12
CG A22T A23T,-0.158 ± 0.56,-0.421 ± 0.27
TA T76A A77G C87T T104G T113A,0.151 ± 0.33,-0.605 ± 0.42
TG A16C G24T T30A T76A T78G C87A,-0.0456 ± 0.17,0.0194 ± 0.14
CG A21C A75C A101C,-3.75 ± 1.3,-3.08 ± 0.72
CG A34G,-0.187 ± 0.0028,-0.0204 ± 0.046
CG A34C,0.459 ± 0.34,0.215 ± 0.064
CG A34T,0.848 ± 0.42,0.709 ± 0.11
CG A22T A23T G24C T25A,-1.61 ± 0.58,-1.21 ± 0.56
CC A101T A102T T104A,-0.0376 ± 0.63,-0.0794 ± 0.32
CG A27C T28G,-0.919 ± 0.29,-1.27 ± 0.47
CG A36T A37T T38A T39A,0.111 ± 0.38,0.0771 ± 0.077
TG A22T G24T T31C A33C T76A A77G C87T,-0.123 ± 0.13,-0.61 ± 0.41
CG,-0.0136 ± 0.21,-0.00322 ± 0.1
CC,0.321 ± 0.75,-0.0693 ± 0.024
CG A21T A22T,-0.163 ± 0.75,-0.172 ± 0.32
CG A1C A2G T3C G4C T5G,-0.385 ± 0.32,-0.219 ± 0.027
CG A19T T20A A21T A22T,-1.03 ± 0.48,-1.21 ± 0.46
CG A34C T35G,0.139 ± 0.22,-0.109 ± 0.025
TA A70C T76A T86G T104A T110A T113A,0.0387 ± 0.67,-0.344 ± 0.23
TA A70C T76A T86G A96C T112G T113C,0.367 ± 0.4,-0.132 ± 0.23
CG A23T G24C T25A G26C,-2.69 ± 1.5,-2.6 ± 0.78
CG A2G,0.28 ± 0.065,0.239 ± 0.039
CG A2T,0.355 ± 0.34,-0.141 ± 0.054

Variant,relative integration efficiency (log2) [1],relative integration efficiency (log2) [2]
CG A2C,0.61035 ± 0.00046,-0.0562 ± 0.037
CG A15C A16C,-0.641 ± 0.48,0.081 ± 0.27
TA G24A T30A T76A T78G C87A T104G T113A,-0.302 ± 0.11,-0.161 ± 0.15
CG A1T A2T T3A G4C T5A,-0.0748 ± 0.54,0.103 ± 0.061
TA G24A T30A A70C T76A T84A C87A T104G T113A,0.182 ± 0.22,0.0306 ± 0.22
CG A16C C17A,-0.804 ± 0.72,-0.728 ± 0.41
TG A23G G24T A33T T76A T78A T84A C87A,0.325 ± 0.22,0.0428 ± 0.34
CC T100A A101T A102T,-0.124 ± 0.68,-0.77 ± 0.44
CG A16C,-0.374 ± 0.29,-0.26 ± 0.13
CG A16T,-0.444 ± 0.68,0.0359 ± 0.064
CG A16G,-0.395 ± 0.6,-0.205 ± 0.27
CG A16C C17A C18A A19C,-3.65 ± 3.1,-2.24 ± 0.77
CA A96C T110A T113A,0.444 ± 0.43,0.00902 ± 0.34
CG A29T A83T A109T,-0.979 ± 0.74,-0.428 ± 0.23
TA T76A T78G C87A A96C T110A T113A,-0.0777 ± 0.55,-0.0885 ± 0.14
TG A16C G24T T32G A33C T76A A77G C87T,-0.184 ± 0.15,-0.603 ± 0.47
CG A16T C17G C18G A19T,-1.18 ± 1.3,-1.61 ± 0.74
TA T76A A77G C87T A96C T110A T113A,-0.108 ± 0.52,-0.522 ± 0.3
TA G24A T30A A70C T76A T84A C87A A102T T111C T113C,-0.133 ± 0.92,-0.0645 ± 0.27
TA G24A T30A T76A A77G C87T T104A T110A T113A,0.503 ± 0.28,-0.582 ± 0.57
